Laboratory results taken from patent US5928931A, “Isolation, purification and cloning of retinol dehydratase” (Cornell Research Foundation, Inc., priority 1997, dated 1999).

Key:
[1] = substrate: Nc1ncnc2c1ncn2[C@@H]1O[C@H](COP(=O)(O)OS(=O)(=O)O)[C@@H](OP(=O)(O)O)[C@H]1O; assay: purified protein, by the assay type; conditions: other: purified recombinant retinol dehydratase, [3H]-retinol assay, n=3; 24.0 °C
[2] = substrate: CC1=C(/C=C/C(C)=C/C=C/C(C)=C/CO)C(C)(C)CCC1; assay: Retinol dehydratase assay ([3H]-retinol to [3H]-AR, HPLC radiomatic detection); kinetic studies; assay type: biochemical, Spodoptera frugiperda; conditions: 24.0 °C
Experimental: 20-50 μl aliquots of supernatant/column fractions were incubated with 1 μCi of [^3 H]-retinol and 20 μl of high speed supernatant from sonicated Sf-9 cells in 200 μl assay buffer (20 mM Tris.Cl pH 7.5, 150 mM NaCl, I mM MgCI2) for 15-60 minutes at 24° C. […] Samples were delipidated and [^3 H]-AR production quantified by a liquid scintillation radiomatic detector in series with HPLC gradient elution (20 mM Tris pH 7.4/methanol/chloroform) from a C-18 Reverse Phase 201TP54 column (Vydac, Separations Group, Hesperia, Calif.) as described by McClean et al., Clin. Chem., 28:693-96 (1982) and Derguini et al., Angew.
Kinetic studies were performed with native retinol dehydratase (0.1 μg/assay) and ^3 H-retinol in the presence of constant substrate carrier protein concentrations, either delipidated BSA or recombinant cellular retinol binding protein ("CRBP"). The initial rate of AR synthesis at different substrate concentrations was determined by radiomatic detection of ^3 H-AR after HPLC separation. […] Conversion of ^3 H-retinol was less than 10% of the total at the end point of each assay.
Carrier protein for retinol (delipidated bovine serum albumin or recombinant human CRBP) was added to reduce nonspecific binding and micelle formation.

B1: retinol dehydratase (Spodoptera frugiperda) (protein)
chain: MEKQQDLPFPYEFRELNPEEDKLVKANLGAFPTTYVKLGPKGYMVYRPYLKDAANIYNMPLRPTDVFVASYQRSGTTMTQELVWLIENDLNFEAAKTYMSLRYIYLDGFMIYDPEKQEEYNDILPNPENLDMERYLGLLEYFSRPGSSLLAAVPPTEKRFVKTHLPLSLMPPNMLDTVKMVYLARDPRDVAVSSFHHARLLYLLNKQSNFKDFWEMFHRGLYTLTPYFEHVKEAWAKRHDPNMLFLFYEDYLKDLPGCIARIADFLGKKLSEEQIQRLCEHLNFEKFKNNGAVNMEDYREIGILADGEHFIRKGKAGCWRDYFDEEMTKQAEKWIKDNLKDTDLRYPNMEL
Question: What does the source list for B1?
Answer: Km [1]: 0.26 ± 0.05 µM; Km ([2]; other: BSA carrier, second condition as printed): 0.05 µM; Km ([2]; other: n=5, free retinol from carrier protein affinities): 0.001 µM; Km ([2]; other: native retinol dehydratase 0.1 μg/assay, 3H-retinol, carrier BSA or CRBP, free retinol, representative experiment, non-linear regression): 0.00066 µM; Km ([2]; other: with 2×10^-7 M CRBP-1): 0.025 µM; Km ([2]; other: with 10^-3 M BSA): 0.4 µM
